{
  "source": "patent US20140072613A1",
  "about": "“Compositions and Methods for Treating Cutaneous Scarring” (priority 2012, published 2014)",
  "experiment_in_all_cases": "cell-based or functional assay",
  "key": {"[1]": {"biological_target": "Pyk2 (h) (human) (UniProt Q14289)", "sequence (Q14289 whole entry)": "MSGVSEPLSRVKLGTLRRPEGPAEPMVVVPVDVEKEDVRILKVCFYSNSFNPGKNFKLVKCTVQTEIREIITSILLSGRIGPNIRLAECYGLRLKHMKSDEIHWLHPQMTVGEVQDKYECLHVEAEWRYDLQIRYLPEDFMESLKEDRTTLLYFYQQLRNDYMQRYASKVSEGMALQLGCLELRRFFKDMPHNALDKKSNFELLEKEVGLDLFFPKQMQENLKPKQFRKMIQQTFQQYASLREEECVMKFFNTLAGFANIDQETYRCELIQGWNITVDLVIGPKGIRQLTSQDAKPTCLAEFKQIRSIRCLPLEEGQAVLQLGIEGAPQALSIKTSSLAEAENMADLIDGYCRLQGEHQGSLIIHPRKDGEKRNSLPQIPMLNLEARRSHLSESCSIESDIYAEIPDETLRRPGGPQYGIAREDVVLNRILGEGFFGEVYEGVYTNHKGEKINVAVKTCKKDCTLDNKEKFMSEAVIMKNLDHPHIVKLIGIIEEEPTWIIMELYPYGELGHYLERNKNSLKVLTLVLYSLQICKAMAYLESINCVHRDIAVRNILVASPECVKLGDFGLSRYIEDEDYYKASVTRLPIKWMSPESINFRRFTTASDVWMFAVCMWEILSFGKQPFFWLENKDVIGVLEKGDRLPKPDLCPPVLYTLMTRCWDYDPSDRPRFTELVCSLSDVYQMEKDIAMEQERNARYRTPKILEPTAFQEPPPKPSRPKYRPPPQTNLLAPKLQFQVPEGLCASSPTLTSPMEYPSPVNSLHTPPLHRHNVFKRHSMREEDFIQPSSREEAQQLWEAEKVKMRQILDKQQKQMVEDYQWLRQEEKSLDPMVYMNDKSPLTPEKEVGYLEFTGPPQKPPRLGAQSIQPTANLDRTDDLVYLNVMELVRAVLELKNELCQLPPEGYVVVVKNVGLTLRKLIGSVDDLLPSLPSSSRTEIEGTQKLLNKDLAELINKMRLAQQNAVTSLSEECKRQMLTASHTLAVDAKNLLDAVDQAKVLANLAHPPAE"}, "[2]": {"biological_target": "T1, Aurora-A(h) (human) (UniProt O14965)", "T1 sequence (looked up)": "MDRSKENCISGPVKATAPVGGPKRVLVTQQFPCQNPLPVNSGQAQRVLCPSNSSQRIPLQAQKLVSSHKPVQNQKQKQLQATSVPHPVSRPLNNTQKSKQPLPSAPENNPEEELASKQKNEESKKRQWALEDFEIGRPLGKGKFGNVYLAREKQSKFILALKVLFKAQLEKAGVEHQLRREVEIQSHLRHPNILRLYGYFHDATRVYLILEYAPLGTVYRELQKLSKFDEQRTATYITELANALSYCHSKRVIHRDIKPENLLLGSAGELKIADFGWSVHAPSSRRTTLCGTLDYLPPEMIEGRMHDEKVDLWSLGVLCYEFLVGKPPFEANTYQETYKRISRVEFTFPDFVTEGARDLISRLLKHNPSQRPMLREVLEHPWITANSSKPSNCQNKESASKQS"}, "[3]": {"biological_target": "Abl(Q252H)(h) (human) (UniProt P00519)"}, "[4]": {"biological_target": "Met(M1268T)(h) (human) (UniProt P08581)"}, "[5]": {"biological_target": "PKCθ(h) (human) (UniProt Q04759)", "sequence (Q04759 whole entry)": "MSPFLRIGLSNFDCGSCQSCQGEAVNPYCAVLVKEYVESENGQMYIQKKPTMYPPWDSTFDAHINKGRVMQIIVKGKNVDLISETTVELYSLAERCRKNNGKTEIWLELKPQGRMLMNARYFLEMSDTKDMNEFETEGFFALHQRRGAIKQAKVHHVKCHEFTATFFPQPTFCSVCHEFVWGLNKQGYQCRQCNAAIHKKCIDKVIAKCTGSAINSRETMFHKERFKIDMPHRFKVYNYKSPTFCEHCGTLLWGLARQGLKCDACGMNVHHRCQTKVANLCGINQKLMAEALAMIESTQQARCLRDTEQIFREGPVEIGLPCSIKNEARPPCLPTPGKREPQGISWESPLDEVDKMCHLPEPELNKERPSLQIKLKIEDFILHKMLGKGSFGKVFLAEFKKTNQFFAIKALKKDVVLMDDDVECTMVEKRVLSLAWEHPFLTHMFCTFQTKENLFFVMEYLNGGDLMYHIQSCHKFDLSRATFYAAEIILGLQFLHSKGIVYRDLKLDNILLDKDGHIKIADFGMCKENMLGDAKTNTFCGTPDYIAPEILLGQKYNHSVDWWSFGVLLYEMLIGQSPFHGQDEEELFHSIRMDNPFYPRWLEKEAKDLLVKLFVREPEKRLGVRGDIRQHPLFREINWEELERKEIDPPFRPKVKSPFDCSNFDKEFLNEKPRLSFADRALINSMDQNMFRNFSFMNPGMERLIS"}, "[6]": {"biological_target": "PRAK(h) (human) (UniProt Q8IW41)", "sequence (Q8IW41 whole entry)": "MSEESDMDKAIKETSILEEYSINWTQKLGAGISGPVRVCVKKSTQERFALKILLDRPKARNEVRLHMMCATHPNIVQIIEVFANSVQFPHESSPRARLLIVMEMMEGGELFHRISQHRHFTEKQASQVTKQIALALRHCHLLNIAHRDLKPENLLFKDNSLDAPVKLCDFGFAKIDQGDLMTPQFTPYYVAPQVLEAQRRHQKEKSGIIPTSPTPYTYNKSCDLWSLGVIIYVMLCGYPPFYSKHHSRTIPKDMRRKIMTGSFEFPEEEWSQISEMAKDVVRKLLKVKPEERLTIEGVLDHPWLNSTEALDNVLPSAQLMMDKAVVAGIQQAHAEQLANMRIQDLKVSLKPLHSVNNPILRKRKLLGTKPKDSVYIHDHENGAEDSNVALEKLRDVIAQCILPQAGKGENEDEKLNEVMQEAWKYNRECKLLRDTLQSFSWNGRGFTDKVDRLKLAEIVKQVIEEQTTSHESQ"}, "[7]": {"biological_target": "ErbB4(h) (human) (UniProt Q15303)"}, "[8]": {"biological_target": "T2, EphA1(h) (human) (UniProt P21709)", "T2 sequence (looked up)": "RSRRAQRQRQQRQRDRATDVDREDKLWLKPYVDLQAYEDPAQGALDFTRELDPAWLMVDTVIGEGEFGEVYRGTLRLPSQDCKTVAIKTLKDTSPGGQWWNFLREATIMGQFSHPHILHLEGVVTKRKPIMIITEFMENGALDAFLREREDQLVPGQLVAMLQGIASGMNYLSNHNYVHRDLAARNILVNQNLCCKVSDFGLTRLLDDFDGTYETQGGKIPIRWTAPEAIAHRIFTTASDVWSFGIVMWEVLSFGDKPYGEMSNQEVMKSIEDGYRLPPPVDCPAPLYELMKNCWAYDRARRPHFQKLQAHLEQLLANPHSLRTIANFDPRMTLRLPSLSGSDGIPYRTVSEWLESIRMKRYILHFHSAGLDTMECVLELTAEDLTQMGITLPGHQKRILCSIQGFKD"}, "[9]": {"biological_target": "Lck(h) (human) (UniProt P06239)"}, "[10]": {"biological_target": "Aurora-B(h) (human) (UniProt Q96GD4)", "sequence (Q96GD4 whole entry)": "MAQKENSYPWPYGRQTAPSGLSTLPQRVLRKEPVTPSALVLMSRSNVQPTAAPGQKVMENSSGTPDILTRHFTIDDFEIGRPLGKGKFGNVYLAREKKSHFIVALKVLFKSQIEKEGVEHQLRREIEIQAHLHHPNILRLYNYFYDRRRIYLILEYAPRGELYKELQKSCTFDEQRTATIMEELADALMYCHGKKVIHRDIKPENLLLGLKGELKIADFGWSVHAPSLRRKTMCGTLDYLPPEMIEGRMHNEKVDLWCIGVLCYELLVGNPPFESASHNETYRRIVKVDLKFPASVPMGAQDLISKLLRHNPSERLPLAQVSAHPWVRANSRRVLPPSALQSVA"}, "[11]": {"biological_target": "EGFR(h) (human) (UniProt P00533)"}, "[12]": {"biological_target": "Hck(h) (human) (UniProt P08631)", "sequence (P08631 251-518 limits assumed)": "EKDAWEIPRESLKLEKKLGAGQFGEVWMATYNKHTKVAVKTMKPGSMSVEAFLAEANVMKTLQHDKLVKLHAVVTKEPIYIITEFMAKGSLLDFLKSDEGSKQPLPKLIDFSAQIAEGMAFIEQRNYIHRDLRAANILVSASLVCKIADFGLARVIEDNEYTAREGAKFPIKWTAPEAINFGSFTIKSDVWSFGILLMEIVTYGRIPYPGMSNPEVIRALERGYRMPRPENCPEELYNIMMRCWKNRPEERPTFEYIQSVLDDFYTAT"}, "[13]": {"biological_target": "PDGFRα(V561D)(h) (human) (UniProt P16234)", "sequence (P16234 550-1089 V561D limits assumed)": "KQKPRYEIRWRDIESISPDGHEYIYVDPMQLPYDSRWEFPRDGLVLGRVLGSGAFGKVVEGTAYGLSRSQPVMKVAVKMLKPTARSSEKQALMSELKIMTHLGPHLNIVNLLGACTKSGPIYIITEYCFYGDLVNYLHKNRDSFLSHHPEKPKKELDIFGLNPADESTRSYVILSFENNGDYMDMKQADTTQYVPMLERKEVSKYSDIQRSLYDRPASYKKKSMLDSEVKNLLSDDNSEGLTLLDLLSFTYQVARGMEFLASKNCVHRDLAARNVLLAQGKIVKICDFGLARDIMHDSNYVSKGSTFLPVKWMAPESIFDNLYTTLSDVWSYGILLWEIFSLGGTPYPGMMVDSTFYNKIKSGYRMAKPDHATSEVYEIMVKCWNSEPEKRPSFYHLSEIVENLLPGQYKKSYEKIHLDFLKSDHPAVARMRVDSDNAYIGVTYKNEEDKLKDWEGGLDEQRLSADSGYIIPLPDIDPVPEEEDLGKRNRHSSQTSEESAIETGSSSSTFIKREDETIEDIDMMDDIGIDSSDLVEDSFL"}, "[14]": {"biological_target": "Ros(h) (human) (UniProt P08922)"}, "[15]": {"biological_target": "ACK1(h) (human) (UniProt Q07912)"}, "[16]": {"biological_target": "T3, DDR2(h) (human) (UniProt Q16832)", "T3 sequence (looked up)": "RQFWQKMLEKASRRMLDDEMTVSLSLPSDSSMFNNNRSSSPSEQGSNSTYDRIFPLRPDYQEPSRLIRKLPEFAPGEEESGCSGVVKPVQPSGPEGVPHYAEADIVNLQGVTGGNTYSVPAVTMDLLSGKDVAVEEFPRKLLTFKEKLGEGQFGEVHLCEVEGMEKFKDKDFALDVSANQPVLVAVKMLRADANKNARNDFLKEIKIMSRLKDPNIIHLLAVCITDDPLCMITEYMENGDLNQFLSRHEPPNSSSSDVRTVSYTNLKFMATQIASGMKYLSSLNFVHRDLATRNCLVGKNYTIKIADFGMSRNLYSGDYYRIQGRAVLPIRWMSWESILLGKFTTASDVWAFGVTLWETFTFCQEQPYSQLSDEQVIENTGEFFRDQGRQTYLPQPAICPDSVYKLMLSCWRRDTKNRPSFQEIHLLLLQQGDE"}, "[17]": {"biological_target": "WNK2(h) (human) (UniProt Q9Y3S1)", "sequence (Q9Y3S1 166-489 limits assumed)": "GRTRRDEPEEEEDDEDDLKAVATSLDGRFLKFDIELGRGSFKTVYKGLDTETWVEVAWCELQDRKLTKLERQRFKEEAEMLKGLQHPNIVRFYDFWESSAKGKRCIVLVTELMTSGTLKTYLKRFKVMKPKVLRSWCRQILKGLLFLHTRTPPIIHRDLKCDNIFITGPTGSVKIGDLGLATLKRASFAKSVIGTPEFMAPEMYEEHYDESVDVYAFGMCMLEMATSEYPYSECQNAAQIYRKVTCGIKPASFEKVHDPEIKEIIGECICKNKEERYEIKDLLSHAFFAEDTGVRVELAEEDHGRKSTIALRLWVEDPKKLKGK"}, "[18]": {"biological_target": "Fes(h) (human) (UniProt P07332)", "sequence (P07332 whole entry)": "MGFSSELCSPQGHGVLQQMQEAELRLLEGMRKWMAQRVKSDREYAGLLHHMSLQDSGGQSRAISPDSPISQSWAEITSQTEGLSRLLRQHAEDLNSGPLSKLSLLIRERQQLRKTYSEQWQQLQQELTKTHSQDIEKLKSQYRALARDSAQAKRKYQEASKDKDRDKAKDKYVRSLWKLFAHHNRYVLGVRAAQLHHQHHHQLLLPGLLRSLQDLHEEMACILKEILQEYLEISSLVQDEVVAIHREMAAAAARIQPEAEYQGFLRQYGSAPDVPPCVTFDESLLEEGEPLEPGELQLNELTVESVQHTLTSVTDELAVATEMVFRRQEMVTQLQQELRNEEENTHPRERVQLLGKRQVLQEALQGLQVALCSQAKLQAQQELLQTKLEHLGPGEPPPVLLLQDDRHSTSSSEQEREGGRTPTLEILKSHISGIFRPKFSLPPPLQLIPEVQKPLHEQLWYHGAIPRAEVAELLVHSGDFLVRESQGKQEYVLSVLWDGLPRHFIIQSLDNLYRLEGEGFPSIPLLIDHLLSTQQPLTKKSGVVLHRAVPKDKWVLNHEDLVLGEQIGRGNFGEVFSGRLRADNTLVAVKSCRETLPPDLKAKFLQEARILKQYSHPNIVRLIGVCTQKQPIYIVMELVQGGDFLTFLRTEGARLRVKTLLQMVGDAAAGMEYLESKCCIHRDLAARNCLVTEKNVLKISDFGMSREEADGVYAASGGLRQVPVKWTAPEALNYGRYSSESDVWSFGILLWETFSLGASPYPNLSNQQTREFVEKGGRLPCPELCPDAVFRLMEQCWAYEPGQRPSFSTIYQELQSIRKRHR"}, "[19]": {"biological_target": "EphA7(h) (human) (UniProt Q15375)"}, "[20]": {"biological_target": "Src(1-530)(h) (human) (UniProt P12931)"}, "[21]": {"biological_target": "MELK(h) (human) (UniProt Q14680)"}, "[22]": {"biological_target": "T4, SAPK3(h) (human) (UniProt P53778)", "T4 sequence (looked up)": "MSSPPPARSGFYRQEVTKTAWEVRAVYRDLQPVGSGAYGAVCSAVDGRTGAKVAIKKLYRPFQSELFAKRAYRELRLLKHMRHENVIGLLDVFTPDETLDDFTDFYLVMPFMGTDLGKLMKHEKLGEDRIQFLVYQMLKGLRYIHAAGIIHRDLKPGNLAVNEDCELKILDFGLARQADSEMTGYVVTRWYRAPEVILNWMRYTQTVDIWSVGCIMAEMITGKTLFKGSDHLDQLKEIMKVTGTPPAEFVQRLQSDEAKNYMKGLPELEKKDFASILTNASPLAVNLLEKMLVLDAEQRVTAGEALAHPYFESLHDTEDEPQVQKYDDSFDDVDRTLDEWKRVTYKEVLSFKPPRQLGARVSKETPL"}, "[23]": {"biological_target": "EphB1(h) (human) (UniProt P54762)"}, "[24]": {"biological_target": "FGFR3(h) (human) (UniProt P22607)", "sequence (P22607 397-806 limits assumed)": "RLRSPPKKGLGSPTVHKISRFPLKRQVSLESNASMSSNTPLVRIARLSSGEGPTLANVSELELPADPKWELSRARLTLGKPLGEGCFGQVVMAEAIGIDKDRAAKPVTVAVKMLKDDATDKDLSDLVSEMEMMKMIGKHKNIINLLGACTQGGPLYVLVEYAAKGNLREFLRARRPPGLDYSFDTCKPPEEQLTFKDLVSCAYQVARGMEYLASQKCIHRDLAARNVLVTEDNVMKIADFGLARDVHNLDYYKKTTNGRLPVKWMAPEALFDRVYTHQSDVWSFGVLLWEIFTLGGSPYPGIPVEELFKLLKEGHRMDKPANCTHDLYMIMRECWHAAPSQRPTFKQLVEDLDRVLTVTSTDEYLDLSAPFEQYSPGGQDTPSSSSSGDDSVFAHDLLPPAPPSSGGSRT"}, "[25]": {"biological_target": "NEK6(h) (human) (UniProt Q9HC98)"}},
  "data": [
    {"substance": "MMI-0500 (peptide)", "values": [
      {"measurement": "% activity, 100 µM", "setting": "[1]", "value": 46, "unit": "%"},
      {"measurement": "% activity, 100 µM", "setting": "[2]", "value": 110, "unit": "%"},
      {"measurement": "% activity, 100 µM", "setting": "[3]", "value": 40, "unit": "%"},
      {"measurement": "% activity, 100 µM", "setting": "[4]", "value": 239, "unit": "%"},
      {"measurement": "% activity, 100 µM", "setting": "[5]", "value": 62, "unit": "%"},
      {"measurement": "% activity, 100 µM", "setting": "[6]", "value": 95, "unit": "%"},
      {"measurement": "% activity, 100 µM", "setting": "[7]", "value": 2, "unit": "%"},
      {"measurement": "% activity, 100 µM", "setting": "[8]", "value": 40, "unit": "%"},
      {"measurement": "% activity, 100 µM", "setting": "[9]", "value": 359, "unit": "%"},
      {"measurement": "% activity, 100 µM", "setting": "[10]", "value": 5, "unit": "%"},
      {"measurement": "% activity, 100 µM", "setting": "[11]", "value": -1, "unit": "%"},
      {"measurement": "% activity, 100 µM", "setting": "[12]", "value": 78, "unit": "%"},
      {"measurement": "% activity, 100 µM", "setting": "[13]", "value": 146, "unit": "%"},
      {"measurement": "% activity, 100 µM", "setting": "[14]", "value": 150, "unit": "%"},
      {"measurement": "% activity, 100 µM", "setting": "[15]", "value": 64, "unit": "%"},
      {"measurement": "% activity, 100 µM", "setting": "[16]", "value": 79, "unit": "%"},
      {"measurement": "% activity, 100 µM", "setting": "[17]", "value": 8, "unit": "%"},
      {"measurement": "% activity, 100 µM", "setting": "[18]", "value": 23, "unit": "%"},
      {"measurement": "% activity, 100 µM", "setting": "[19]", "value": 189, "unit": "%"},
      {"measurement": "% activity, 100 µM", "setting": "[20]", "value": 21, "unit": "%"},
      {"measurement": "% activity, 100 µM", "setting": "[21]", "value": 0, "unit": "%"},
      {"measurement": "% activity, 100 µM", "setting": "[22]", "value": 24, "unit": "%"},
      {"measurement": "% activity, 100 µM", "setting": "[23]", "value": 37, "unit": "%"},
      {"measurement": "% activity, 100 µM", "setting": "[24]", "value": 10, "unit": "%"},
      {"measurement": "% activity, 100 µM", "setting": "[25]", "value": 49, "unit": "%"}
    ]}
  ]
}
